The labels stand for the following.
B1: EPB41L3 (parent)
chain: KKFLTLGSKFRYSGRTQAQTRRAS
B2: DFFB (parent)
chain: KLNCDPSRIYKPQTRLKRKQPVRK
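Also: lentivirally expressed fusions sorted by FACS into six bins by GFP to DsRed ratio, PSI derived from sequencing read proportions per bin multiplied by bin number.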

Variants of B1 are the subject of one data set. Kind of data set: protein stability index of a GFP-peptide fusion (GPS, HEK-293T) (PSI 1-6); higher = more stable. Particulars: c terminus: a fixed tail appended.
Regarding KKFLTKGSKFRYSGRTQAQTRRAS, the protein stability index came to 3.64.
As to KKFLTHGSKFRYSGRTQAQTRRAS, the protein stability index came to 3.38.
Same read-out and setting: next, KKFLTLGSKFRYSGRTQHQTRRAS: 2.49; KKFLTLGSKFRYSGRTQYQTRRAS: 3.11.
Regarding KKFLTLGSKFRYSGRTQNQTRRAS, the protein stability index stood at 3.55.
For the variant KKFLTLGSKFRYSGRTQTQTRRAS, the protein stability index was found to be 3.1.
Same read-out and setting: under KKFLTLGSKFRYSGRTQSQTRRAS stands 3.19.
Still for that read-out and setting: under KKFLTLGSKFRYSGRTQPQTRRAS stands 2.92; under KKFLTLGSKFRYSGRTQLQTRRAS, 2.44; under KKFLTLGSKFRYSGRTQFQTRRAS, 2.44.
With KKFLTLGSKFRYSGRTQIQTRRAS, the protein stability index was determined as 2.91.
Still for that read-out and setting: next, KKFLTLGSHFRYSGRTQAQTRRAS: 2.11; KKFLTLGSCFRYSGRTQAQTRRAS: 1.66; KKFLTLGSKFRYSGRTQAQTRFAS: 2.05.
Still for that read-out and setting: under KKFLTLGSKFRYSGRTQAQTRDAS stands 2.24.

A further data set covers variants of B2. The description is as above. The following applies: c terminus: a fixed tail appended.
Consider KLNCDPSRIYDPQTRLKRKQPVRK, for which the protein stability index was found to be 3.21.
The same measure, in the same setting: under KLNCDPSRIYSPQTRLKRKQPVRK stands 2.89.
Still for that read-out and setting: next, KLNCDPSRIYLPQTRLKRKQPVRK: 2.99; KLNNDPSRIYKPQTRLKRKQPVRK: 3.74.
On the same count and under the same terms, under KLNVDPSRIYKPQTRLKRKQPVRK stands 4.06.
Consider KLNQDPSRIYKPQTRLKRKQPVRK, for which the protein stability index was found to be 3.78.
Still for that read-out and setting: under KLNWDPSRIYKPQTRLKRKQPVRK stands 3.56.
In the case of KLNDDPSRIYKPQTRLKRKQPVRK, the protein stability index worked out at 3.88.
The same measure, in the same setting: under KLNCDPSRIYKPQTYLKRKQPVRK stands 2.17; under KLNCDPSRIYKPQTHLKRKQPVRK, 3.59; under KLNCDPSRIYKPQTLLKRKQPVRK, 2.69.
On the same count and under the same terms, under KLNCDPSRIYKPQTVLKRKQPVRK stands 3.49; under KLNCDPSRIYKPQTFLKRKQPVRK, 3.25.
KLNCDPSRIYKPQTRLKRKQPVCK: the protein stability index was 3.21.
On the same count and under the same terms, next, KLNCDPSRIYKPQTRLKRKDPVRK: 3.35.
Regarding KLNCDPSRIYKPQTRLKRKVPVRK, the protein stability index was 3.54.
Turning to KLNCDPSRIYKPQTRLKRKHPVRK, the protein stability index is 3.12.
The same measure, in the same setting: under KLNCDPSRIYKPQTRLKRKAPVRK stands 3.38; under KLNCDPSRIYKPQTRLKRKQGVRK, 3.49.
As to KLNCDPSRIYKPQTRLKRKQQVRK, the protein stability index amounted to 3.37.
Still for that read-out and setting: under KLNCDPSRIYKPQTRLKRKQDVRK stands 2.71; under KLNCDPSRIYKPQTRLKRKQSVRK, 3.13.
Turning to KLNCDPSRIYKPQFRLKRKQPVRK, the protein stability index was 2.68.
Same read-out and setting: under KLNCDPSRIYKPQDRLKRKQPVRK stands 3.28; under KLNCDPSRIYKPQCRLKRKQPVRK, 3.61.
KLNCDPSRIYKPQMRLKRKQPVRK: the protein stability index turned out to be 2.64.
As for KLNCDPSRIYKLQTRLKRKQPVRK, the protein stability index was determined as 2.86.
Same read-out and setting: under KLNCDPSRIYKYQTRLKRKQPVRK stands 2.79; under KLNCDPSRIYKMQTRLKRKQPVRK, 3.31.
The same measure, in the same setting: under KLNCDPSRIYKPQTRLKRKQPWRK stands 3.26; under KLNCDPSRIYKPQTRLKRKQPYRK, 2.22; under KLNCDPSRIYKPQTRLKRKQPQRK, 3.39.
As for KLNCDPSRIYKPQTRLKRKQPARK, the protein stability index turned out to be 3.77.
On the same count and under the same terms, next, KLNCDPSRIYKPQTRLKRKQPMRK: 3.42.
Same read-out and setting: under KLNCDCSRIYKPQTRLKRKQPVRK stands 3.22; under KLNCDVSRIYKPQTRLKRKQPVRK, 2.89; under KLNCDNSRIYKPQTRLKRKQPVRK, 3.79.
The same measure, in the same setting: under KFNCDPSRIYKPQTRLKRKQPVRK stands 3.96; under KDNCDPSRIYKPQTRLKRKQPVRK, 4.89; under KINCDPSRIYKPQTRLKRKQPVRK, 3.2.
With KCNCDPSRIYKPQTRLKRKQPVRK, the protein stability index was found to be 3.55.
Same read-out and setting: under KWNCDPSRIYKPQTRLKRKQPVRK stands 2.73.
For the variant KLNCDPSRGYKPQTRLKRKQPVRK, the protein stability index came out at 3.47.
On the same count and under the same terms, next, KLNCDPSRIYKPQTRLRRKQPVRK: 3.18.
The same measure, in the same setting: next, KLNCDPSRIYKPQTRLVRKQPVRK: 3.25; KLNCDPSRIYKPQTRLERKQPVRK: 3.42.
On the same count and under the same terms, next, KLNCDPSRIYKPQTRLSRKQPVRK: 3.35; KLNCDPSRICKPQTRLKRKQPVRK: 3.62; KLNCDPSRISKPQTRLKRKQPVRK: 4.16.
For the variant KLNCDPSRIMKPQTRLKRKQPVRK, the protein stability index turned out to be 3.38.
Still for that read-out and setting: under KLNCDPSYIYKPQTRLKRKQPVRK stands 2.77; under KLNCDPSMIYKPQTRLKRKQPVRK, 3.23.
Still for that read-out and setting: next, KLNCDPSRIYKPWTRLKRKQPVRK: 3.6; KLNCDPSRIYKPKTRLKRKQPVRK: 4.12; KLNCDPSRIYKPTTRLKRKQPVRK: 3.66.
For KLNCDPMRIYKPQTRLKRKQPVRK, the protein stability index turned out to be 3.07.
In the case of KLNCDPNRIYKPQTRLKRKQPVRK, the protein stability index stood at 3.55.
Still for that read-out and setting: under KLNCDPFRIYKPQTRLKRKQPVRK stands 3.34; under KLNCDPVRIYKPQTRLKRKQPVRK, 3.21; under CLNCDPSRIYKPQTRLKRKQPVRK, 3.2.
Turning to FLNCDPSRIYKPQTRLKRKQPVRK, the protein stability index worked out at 2.63.
Same read-out and setting: next, SLNCDPSRIYKPQTRLKRKQPVRK: 2.92; QLNCDPSRIYKPQTRLKRKQPVRK: 3.37; MLNCDPSRIYKPQTRLKRKQPVRK: 2.65.
On the same count and under the same terms, next, KLNCHPSRIYKPQTRLKRKQPVRK: 3.48; KLLCDPSRIYKPQTRLKRKQPVRK: 3.06; KLNCDPSRIYKPQTRLKRWQPVRK: 2.94.
KLNCDPSRIYKPQTRLKRVQPVRK: the protein stability index was determined as 2.96.
Consider KLNCDPSRIYKPQTRLKRCQPVRK, for which the protein stability index stood at 2.69.
Regarding KLNCDPSRIYKPQTRLKRPQPVRK, the protein stability index stood at 3.25.
Consider KLNCDPSRIYKPQTRLKREQPVRK, for which the protein stability index is 2.93.
Still for that read-out and setting: next, KLNCDPSRIYKPQTRLKRYQPVRK: 2.89; KLNCDPSRIYKPQTRLKRKQPVRS: 4.02; KLNCDPSRIYKPQTRLKRKQPVRG: 3.23.
For the variant KLNCDPSRIYKPQTRLKRKQPVRF, the protein stability index came to 2.7.
For the variant KLNCDPSRIYKPQTRLKRKQPVRT, the protein stability index is 4.04.
In the case of KLNCDPSRIYKPQTRLKTKQPVRK, the protein stability index was determined as 3.96.
Same read-out and setting: next, KLNCDPSRIYKPQTRLKSKQPVRK: 3.37; KLNCDPSRIYKPQTRLKFKQPVRK: 3.44.

The record behind these values is the supplement of paper PMC10567573.
